Experimental data taken from the PETadex activity labels (doi:10.1038/s41467-025-61599-z).

How the values were obtained:
PET [1] = test: Proxy for plastic degradation [Released monomer concentration (HPLC/LC-MS) (TPA+MHET)]
[2] = Proxy for plastic degradation [UPLC/UHPLC]; conditions: pH 9
pNPB = test: Proxy for plastic degradation [Absorbance @ 430nm] (min⁻¹); conditions: pH 8; part of the chain shown
PET [3] = test: Proxy for plastic degradation [Released monomer concentration (HPLC/LC-MS) (MHET+TPA)]; conditions: pH 9, part of the chain shown
PET [4] = test: Proxy for plastic degradation [kcat/Km (catalytic efficiency)] (mM⁻¹s⁻¹); conditions: pH 8
[5] = Proxy for plastic degradation [Released monomer concentration (HPLC/LC-MS) (TPA+MHET)]

Protein | Proxy for plastic degradation ([2]; 30 °C) [µM] | Proxy for plastic degradation ([2]; 40 °C) [µM] | Proxy for plastic degradation ([2]; 50 °C) [µM] | Proxy for plastic degradation ([2]; 55 °C) [µM] | Proxy for plastic degradation ([2]; 60 °C) [µM] | further results
unnamed (protein) MAVMTPRRERSSLLSRALQVTAAAATALVTAVSLAAPAHAANPYERGPNPTDALLEASSGPFSVSEENVSRLSASGFGGGTIYYPRENNTYGAVAISPGYTGTEASIAWLGERIASHGFVVITIDTITTLDQPDSRAEQLNAALNHMINRASSTVRSRIDSSRLAVMGHSMGGGGTLRLASQRPDLKAAIPLTPWHLNKNWSSVTVPTLIIGADLDTIAPVATHAKPFYNSLPSSISKAYLELDGATHFAPNIPNKIIGKYSVAWLKRFVDNDTRYTQFLCPGPRDGLFGEVEEYRSTCPF | – | – | – | – | – | Proxy for plastic degradation (PET [1]; 30 °C): 7.78 µM; Proxy for plastic degradation (PET [1]; 40 °C): 26.7 µM; Proxy for plastic degradation (PET [1]; 50 °C): 124 µM; Proxy for plastic degradation (PET [1]; 55 °C): 850 µM; Proxy for plastic degradation (PET [1]; 60 °C): 140 µM
unnamed (protein) MRARIAALVAVPFLGAGAFAVSSVAAGDPPAVRTVPAAAAAPVDWSKTGPHQVKVDKADAHTIYRPSDLGSGGVKNPVVIWGNGTGATPAAYDGLLRHWASHGFVVAAANTKQANNGNAMRAGLDLVTKWNTTSSSPYYGKVDVSRVASSGHSQGGAGAMNAAVDTRVDAVLPIQPGPLAAPRKFKQPTFYMAGQNDRVVWPSWVRNFYNKSGHLPAVFGVVRGATHVAPAGDGGAFRGPTTAWLSFTLRGDASARAQFAGASCGYCGASSPFSNWLRNTRFTSQNG | 12.7 | 12.6 | 15.7 | 16 | 16.4 | –
unnamed (protein) MSHRFRLAAAVCVAAAILVPATPAAAADPWDAPGPYATAVQIGAVNTLYYPRDIASSPRRHPVIVWGNGTGAAPLVYRDLLLYWASHGFIVSAANTPASNLGISMRLGIDALAAADADPGSIFRGKVDLAHIGASGHSQGGAAAIVVGADPRIDAILPIQPGPLADIDDVHVPALLLAGQHDSIVFPFLVKAFYNDATHIPAIYAEVRGADHFTVVGDPGPFAAPTTAWFRFQLMGDTAARAEFYGPSCGICTDTRTWSDVRRNALVP | 13 | 13.4 | 14.2 | 13.4 | 14.1 | –
unnamed (protein) MRVLAMTLALVASTLATPTALAAPPDYGLPGSYPVAYSDVTAVAGGRSVPARVHYPATTSGTNQPVATGRFPVIAFGHGFFQATSKYTSTSTHLASWGFVVVVPTTQGGLSPSHGAFADDLNTGLTWLVAQDGTTGSRFRDHITTTALGVSGHSMGGGAAVLAAARNPKIKAVSTYAAAETNPSAKAAAATLAAPAQFLAGSQDTITPVGDHQRPMFTAKPPARQLRTITGGFHCGFMDSSGLFCDNGSITRAAQLTASKRVMTSWFRHYLSGDTAARDLVWGQPARTDPAVVFEGTE | 13 | 18 | 16.6 | 16.2 | 16.5 | –
unnamed (protein) APPDYGLPGSYPVAYSDVTAVAGGRSVPARVHYPATTSGTNQPVATGRFPVIA | – | – | – | – | – | Proxy for plastic degradation (pNPB): 13000; Proxy for plastic degradation (PET [3]; 30 °C): 13 µM; Proxy for plastic degradation (PET [3]; 40 °C): 18 µM; Proxy for plastic degradation (PET [3]; 50 °C): 16.6 µM; Proxy for plastic degradation (PET [3]; 55 °C): 16.2 µM; Proxy for plastic degradation (PET [3]; 60 °C): 16.5 µM
unnamed (protein) MAVITPRRERSSLLSRALRFTAAAATALVTAVSLAAPAHAANPYERGPNPTDALLEARSGPFSVSEERASRFGADGFGGGTIYYPRENNTYGAVAISPGYTGTQASVAWLGKRIASHGFVVITIDTNTTLDQPDSRARQLNAALDYMINDASSAVRSRIDSSRLAVMGHSMGGGGSLRLASQRPDLKAAIPLTPWHLNKNWSSVRVPTLIIGADLDTIAPVLTHARPFYNSLPTSISKAYLELDGATHFAPNIPNKIIGKYSVAWLKRFVDNDTRYTQFLCPGPRDGLFGEVEEYRSTCPF | – | – | – | – | – | Proxy for plastic degradation (PET [1]; 30 °C): 2.77 µM; Proxy for plastic degradation (PET [1]; 40 °C): 2.15 µM; Proxy for plastic degradation (PET [1]; 50 °C): 2.1 µM; Proxy for plastic degradation (PET [1]; 55 °C): 2.23 µM; Proxy for plastic degradation (PET [1]; 60 °C): 0 µM
unnamed (protein) MLSKRGILGALAGGAVAVGCLTAPAHAAGFEKGPDPTTASVTADRGSYDIAQVDVPKGSGTGFADGTIYYPKSTADGTFGAVAVIPGFLEPKSAIDWYGPRLASQGFVVMTLDTTSVFDTPDSRGGQLLAALDYLTSKSTVKDRIDPNRLAVVGHSMGGGGTLSAAANRPNLKAAVALAPWHVSAPLTSVKTPTMIFGSDNDFIAPDGTFAKPFYDGISNAPEKAYVRLKNAGHMAYVFPDKRIAEYTLSWLKRYVDDDTRYTQFLCPGPTNESTIAAYKSTCPM | 14.7 | 14.2 | 14.1 | 14.4 | 15 | –
unnamed (protein) MKTNRRTLMLTGIAMTIGTAGRAAQATPEFKPQPGPLSIKSAAAISFRVEDQAKDLQIRVTYPDGPGPWPAIIFSHGAMSSKDFYNRVADHWATHGYATILPTHLDSESLGYSFKNPLPREKVFFGRIGDMQFILNHLDEIAGKAGIAGKIEKTKLAVAGHSFGGWTSLILAGLPVKMPDGSLKSFADSRIKALVSYNGIGPMDEIPDAAWAKVAIPVFAASGTNDPGATGSGPVHPWRWRIGAYDYAGSKEKYAVSITMGDHYYGGLICREGAGGKPDPEGLSFVNGSSTAFMDAYLKDDKSAKKFLRTADLRPLTNDRAFLERS | 15.7 | 12.8 | 17.3 | 17.3 | 17.2 | –
unnamed (protein) MNFPRASRLMQAAVLGGLMAVSAAATAQTNPYARGPNPTAASLEASAGPFTVRSFTVSRPSGYGAGTVYYPTNAGGTVGAIAIVPGYTARQSSIKWWGPRLASHGFVVITIDTNSTLDQPSSRSSQQMAALRQVASLNGTSSSPIYGKVDTARMGVMGWSMGGGGSLISAANNPSLKAAAPQAPWDSSTNFSSVTVPTLIFACENDSIAPVNSSALPIYDSMSRNAKQFLEINGGSHSCANSGNSNQALIGKKGVAWMKRFMDNDTRYSTFACENPNSTRVSDFRTANCS | – | – | – | – | – | Proxy for plastic degradation ([2]; 30 °C, part of the chain shown): 37.5 µM; Proxy for plastic degradation ([2]; 40 °C, part of the chain shown): 31.2 µM; Proxy for plastic degradation ([2]; 50 °C, part of the chain shown): 18 µM; Proxy for plastic degradation ([2]; 55 °C, part of the chain shown): 15.4 µM; Proxy for plastic degradation ([2]; 60 °C, part of the chain shown): 15.6 µM; Proxy for plastic degradation (pNPB): 18300; Proxy for plastic degradation (PET [1]; 30 °C, part of the chain shown): 37.5 µM; Proxy for plastic degradation (PET [1]; 40 °C, part of the chain shown): 31.2 µM; Proxy for plastic degradation (PET [1]; 50 °C, part of the chain shown): 18 µM; Proxy for plastic degradation (PET [1]; 55 °C, part of the chain shown): 15.6 µM; Proxy for plastic degradation (PET [1]; 60 °C, part of the chain shown): 0 µM; Proxy for plastic degradation (PET [1]; pH 9, 30 °C, 24 h, part of the chain shown): 70.2 µM; Proxy for plastic degradation (PET [1]; pH 9, 30 °C, 48 h, part of the chain shown): 69.5 µM; Proxy for plastic degradation (PET [1]; pH 9, 30 °C, 72 h, part of the chain shown): 15.4 µM; Proxy for plastic degradation (PET [3]; 30 °C): 37.5 µM; Proxy for plastic degradation (PET [3]; 40 °C): 31.2 µM; Proxy for plastic degradation (PET [3]; 50 °C): 18 µM; Proxy for plastic degradation (PET [3]; 55 °C): 15.4 µM; Proxy for plastic degradation (PET [3]; 60 °C): 15.6 µM
unnamed (protein) MNFPRASRLMQAAVLGGLMAVSAAATAQTNPYARGPNPTAASLEASAGPFTVRSFTVSRPSGYGAGTVYYPTNAGGTVGAIAIVPGYTARQSSIKWWGPRLASHGFVVITIDTNSTLDQPESRSSQQMAALRQVASLNGTSSSPIYGKVDTARMGVMGWSMGGGGSLISAANNPSLKAAAPQAPWHSSTNFSSVTVPTLIFACENDSIAPVNSSALPIYDSMSQNAKQFLEIKGGSHSCANSGNSNQALIGKKGVAWMKRFMDNDTRYSTFACENPNSTAVSDFRTANCS | – | – | – | – | – | Proxy for plastic degradation (PET [4]): 0.141; Proxy for plastic degradation ([5]; 30 °C): 213 µM; Proxy for plastic degradation ([5]; 40 °C): 272 µM; Proxy for plastic degradation ([5]; 50 °C): 2110 µM; Proxy for plastic degradation ([5]; 60 °C): 58 µM
unnamed (protein) MNAPLFKLAALTLGLSLASVVLANNPGGGGGTAPDTGTGFPGVSNFSASGSFATTSGSAGASCTVFRPSTLGANNRKHPIIVWGNGTTASPNTYASLLQHWASHGFVVIAANTSNAGTGQEMLGCVDYLTTQNNRSTGTYAGKLDLNRIGAAGHSQGGGGTIMAGQDYRIKVTAPFQPYTIGLGHNSSSQSNQNGPMFLMTGSIDTIASPTLNALPVYTRANVPVFWGELSGASHFEPVGNAGDFRGPATAWFRYHLMDDASAEDTFYGSNCDLCTDRDWDVRRKGIN | 8.31 | 9.03 | 9.57 | 9.09 | 9.47 | –
unnamed (protein) MGGGGEDNVFAEPGDFDVVTEPGGRDCTIFRPEQLGDDHAVVIWGNGTGASPNTYAGLLRHYASHGFVVVAANTSNAGTGEDMLNCLDFLEGSQLASSVDFSKVGATGHSQGGGGAIMAGVDPRIATTAPIEGFTLGLGHDRDSHDQQNGPMLILSGSADRLVNPRTNHAPLFDATNVPAFWAIAQGAGHFEPVGDGGDFRGISTAWFLFQLEDDPEATTHFVGDDCFVCEDPGFDVEGVKEID | 14 | 13.8 | 15.8 | 14.4 | 14.9 | –
unnamed (protein) MQDNSDGRYRPEGRTFARGAANLFDDRLFEARTYVTGTDVAEFASATIFYPLTLSFDLPNGVVVMSPGYTGTPESYDWWGPMLASVGIITAIIETNTPEDNLEQRKNALIAGIELIKRENANSASPINNKVDESQIAIMGHSLGGGASLRAAEELEGDIKAVIPLTPYCCELGQSFEGDLKGVSTPTLIIAAADDTIAPPETHSRLLYDEINSSTNKVYLEFAEGAHGLPTNQGSEFQTQGTYVYAFLKANFTNDSKYSDFIGGDGEDSFSSYETN | 15.4 | 15.5 | 15.5 | 16.6 | 16.1 | –
